Laboratory results reported in the supplement of paper PMC10065799, “High-throughput profiling of sequence recognition by tyrosine kinases and SH2 domains using bacterial peptide display” (eLife, 2023).

What was measured:
[1] = test system: AncSZ; test: phosphorylation enrichment, bacterial display (enrichment ratio); higher = better substrate or ligand; peptides without Tyr show the background
[2] = target: EPHB1 (UniProt P54762); test: as above
[3] = target: EPHB2 (UniProt P29323); test: as above
EPHB2, sequence (P29323 whole entry, looked up): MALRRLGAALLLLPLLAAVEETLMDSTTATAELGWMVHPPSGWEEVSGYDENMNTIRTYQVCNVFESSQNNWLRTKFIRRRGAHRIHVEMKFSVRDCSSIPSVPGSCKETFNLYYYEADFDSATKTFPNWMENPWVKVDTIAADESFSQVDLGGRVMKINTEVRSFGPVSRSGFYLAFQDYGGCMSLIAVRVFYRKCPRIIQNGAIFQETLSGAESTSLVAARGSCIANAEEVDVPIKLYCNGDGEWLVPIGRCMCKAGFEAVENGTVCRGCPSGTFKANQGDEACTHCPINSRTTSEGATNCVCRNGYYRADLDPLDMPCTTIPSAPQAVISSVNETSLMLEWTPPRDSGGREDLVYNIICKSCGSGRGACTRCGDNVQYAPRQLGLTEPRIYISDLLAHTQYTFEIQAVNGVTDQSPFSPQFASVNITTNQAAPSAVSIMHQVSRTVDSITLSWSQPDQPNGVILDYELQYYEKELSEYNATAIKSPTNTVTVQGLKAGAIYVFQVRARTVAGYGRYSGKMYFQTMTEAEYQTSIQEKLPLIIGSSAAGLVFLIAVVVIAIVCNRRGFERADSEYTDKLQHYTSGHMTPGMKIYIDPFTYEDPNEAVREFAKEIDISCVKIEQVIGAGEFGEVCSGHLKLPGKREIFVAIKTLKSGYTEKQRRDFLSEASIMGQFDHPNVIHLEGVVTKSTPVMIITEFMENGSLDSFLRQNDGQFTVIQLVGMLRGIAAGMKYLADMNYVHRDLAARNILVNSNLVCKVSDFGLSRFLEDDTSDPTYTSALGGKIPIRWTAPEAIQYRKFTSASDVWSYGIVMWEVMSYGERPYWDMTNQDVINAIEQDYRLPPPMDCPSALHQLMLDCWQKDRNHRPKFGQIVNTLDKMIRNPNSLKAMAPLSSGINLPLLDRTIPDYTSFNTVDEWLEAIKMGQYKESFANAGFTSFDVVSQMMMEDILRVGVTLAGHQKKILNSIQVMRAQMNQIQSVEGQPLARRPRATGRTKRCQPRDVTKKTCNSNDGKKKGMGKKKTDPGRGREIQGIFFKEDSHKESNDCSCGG

[4] = target: FGFR1 (UniProt P11362); test: as above
FGFR1, sequence (P11362 whole entry, looked up): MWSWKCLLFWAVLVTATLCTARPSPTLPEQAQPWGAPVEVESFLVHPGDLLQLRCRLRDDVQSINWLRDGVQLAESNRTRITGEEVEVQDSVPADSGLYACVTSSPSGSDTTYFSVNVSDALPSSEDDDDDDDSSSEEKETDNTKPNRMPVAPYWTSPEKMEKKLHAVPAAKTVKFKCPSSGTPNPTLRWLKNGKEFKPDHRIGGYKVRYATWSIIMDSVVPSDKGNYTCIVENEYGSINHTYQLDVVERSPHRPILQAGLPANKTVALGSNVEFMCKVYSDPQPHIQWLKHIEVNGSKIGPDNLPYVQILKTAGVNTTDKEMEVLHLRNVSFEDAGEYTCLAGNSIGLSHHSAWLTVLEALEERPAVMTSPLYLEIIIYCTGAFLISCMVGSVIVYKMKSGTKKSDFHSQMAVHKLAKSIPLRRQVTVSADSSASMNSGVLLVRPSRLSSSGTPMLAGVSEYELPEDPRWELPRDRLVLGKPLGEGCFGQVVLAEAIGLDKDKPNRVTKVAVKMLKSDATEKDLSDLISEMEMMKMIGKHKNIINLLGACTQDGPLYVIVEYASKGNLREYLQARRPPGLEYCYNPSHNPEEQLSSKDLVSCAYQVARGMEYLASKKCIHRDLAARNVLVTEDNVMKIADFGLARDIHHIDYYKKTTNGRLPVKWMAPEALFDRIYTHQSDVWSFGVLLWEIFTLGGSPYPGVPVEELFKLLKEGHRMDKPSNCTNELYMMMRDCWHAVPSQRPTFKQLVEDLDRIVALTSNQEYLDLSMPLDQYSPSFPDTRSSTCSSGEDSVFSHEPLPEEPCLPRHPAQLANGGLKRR

[5] = target: FGFR3 (UniProt P22607); test: as above
[6] = test system: Fer (mouse); test: as above
[7] = target: Fes (UniProt P07332); test: as above
Fes, sequence (P07332 whole entry, looked up): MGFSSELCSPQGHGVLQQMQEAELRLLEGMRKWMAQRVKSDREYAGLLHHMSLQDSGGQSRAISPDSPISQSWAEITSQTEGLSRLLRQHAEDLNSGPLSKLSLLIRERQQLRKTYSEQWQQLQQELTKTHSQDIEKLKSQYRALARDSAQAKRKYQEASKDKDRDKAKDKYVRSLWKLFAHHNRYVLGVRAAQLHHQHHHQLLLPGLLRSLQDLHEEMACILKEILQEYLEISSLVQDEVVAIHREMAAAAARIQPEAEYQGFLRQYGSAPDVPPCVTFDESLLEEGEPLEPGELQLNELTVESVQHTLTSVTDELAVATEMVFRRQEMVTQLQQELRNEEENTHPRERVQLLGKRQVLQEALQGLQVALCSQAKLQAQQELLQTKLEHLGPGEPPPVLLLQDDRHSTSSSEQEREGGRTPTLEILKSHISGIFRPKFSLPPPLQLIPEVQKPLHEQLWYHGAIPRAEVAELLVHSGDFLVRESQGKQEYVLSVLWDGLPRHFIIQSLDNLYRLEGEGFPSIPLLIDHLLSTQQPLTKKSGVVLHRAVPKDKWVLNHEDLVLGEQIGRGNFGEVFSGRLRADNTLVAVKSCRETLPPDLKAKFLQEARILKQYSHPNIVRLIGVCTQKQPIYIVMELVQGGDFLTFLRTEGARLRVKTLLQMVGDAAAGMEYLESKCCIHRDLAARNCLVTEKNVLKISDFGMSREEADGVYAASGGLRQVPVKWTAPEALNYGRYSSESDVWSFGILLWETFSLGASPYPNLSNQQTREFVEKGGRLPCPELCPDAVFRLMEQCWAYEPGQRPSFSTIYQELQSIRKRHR

[8] = target: Fyn (UniProt P06241); test: as above
[9] = target: Hck (UniProt P08631); test: as above
[10] = target: Jak2 (UniProt O60674); test: as above
[11] = target: MERTK (UniProt Q12866); test: as above
MERTK, sequence (Q12866 whole entry, looked up): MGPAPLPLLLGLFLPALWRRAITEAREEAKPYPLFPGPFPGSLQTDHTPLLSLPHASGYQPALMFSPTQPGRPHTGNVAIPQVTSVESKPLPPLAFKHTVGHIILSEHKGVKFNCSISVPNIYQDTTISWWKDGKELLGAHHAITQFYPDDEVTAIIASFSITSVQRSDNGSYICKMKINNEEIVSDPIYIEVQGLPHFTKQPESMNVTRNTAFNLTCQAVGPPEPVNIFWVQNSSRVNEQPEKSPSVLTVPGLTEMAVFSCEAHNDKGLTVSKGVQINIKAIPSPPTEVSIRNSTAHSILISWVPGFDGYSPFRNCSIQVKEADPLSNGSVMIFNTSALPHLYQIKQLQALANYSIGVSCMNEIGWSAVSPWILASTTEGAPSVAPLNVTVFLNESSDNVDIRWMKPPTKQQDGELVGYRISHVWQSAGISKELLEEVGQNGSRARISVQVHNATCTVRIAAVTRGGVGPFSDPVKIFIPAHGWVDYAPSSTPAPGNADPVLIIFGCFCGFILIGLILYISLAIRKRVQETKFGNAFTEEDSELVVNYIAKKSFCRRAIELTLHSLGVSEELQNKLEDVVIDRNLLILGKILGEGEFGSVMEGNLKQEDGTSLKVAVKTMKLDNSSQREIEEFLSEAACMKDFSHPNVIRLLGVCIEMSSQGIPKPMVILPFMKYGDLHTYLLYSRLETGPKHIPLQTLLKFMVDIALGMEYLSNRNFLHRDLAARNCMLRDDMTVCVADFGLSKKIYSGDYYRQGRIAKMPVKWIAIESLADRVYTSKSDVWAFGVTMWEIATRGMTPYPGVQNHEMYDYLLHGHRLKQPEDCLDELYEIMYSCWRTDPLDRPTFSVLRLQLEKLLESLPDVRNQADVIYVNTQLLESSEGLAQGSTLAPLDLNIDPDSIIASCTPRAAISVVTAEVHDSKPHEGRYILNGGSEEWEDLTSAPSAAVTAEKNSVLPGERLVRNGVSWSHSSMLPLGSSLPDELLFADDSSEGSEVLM

[12] = test system: c-Abl (mouse); test: as above
[13] = test system: c-Src; test: as above
[14] = target: Grb2 SH2 (UniProt P62993); test: SH2 binding enrichment of the phosphorylated peptide, bacterial display (enrichment ratio); higher = better substrate or ligand; peptides without Tyr show the background
[15] = target: SHP2-C SH2; test: as above
[16] = target: c-Src SH2; test: as above
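Wherever SH2 binding enrichment of the phosphorylated peptide, bacterial display is given: peptide library displayed on the E. coli surface as eCPX fusions, selected cells deep-sequenced, score is each peptide's frequency after selection divided by its frequency in the input.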
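Wherever phosphorylation enrichment, bacterial display is given: 11-residue human phosphosite peptides and single-mutation variants displayed on the E. coli surface, counted by deep sequencing, each peptide's frequency after selection divided by its frequency in the unselected input library; frequency after pTyr selection over input frequency; kinase dosed for 20-30% of maximal phosphorylation in three min.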

EPHB1, sequence (P54762 whole entry, looked up): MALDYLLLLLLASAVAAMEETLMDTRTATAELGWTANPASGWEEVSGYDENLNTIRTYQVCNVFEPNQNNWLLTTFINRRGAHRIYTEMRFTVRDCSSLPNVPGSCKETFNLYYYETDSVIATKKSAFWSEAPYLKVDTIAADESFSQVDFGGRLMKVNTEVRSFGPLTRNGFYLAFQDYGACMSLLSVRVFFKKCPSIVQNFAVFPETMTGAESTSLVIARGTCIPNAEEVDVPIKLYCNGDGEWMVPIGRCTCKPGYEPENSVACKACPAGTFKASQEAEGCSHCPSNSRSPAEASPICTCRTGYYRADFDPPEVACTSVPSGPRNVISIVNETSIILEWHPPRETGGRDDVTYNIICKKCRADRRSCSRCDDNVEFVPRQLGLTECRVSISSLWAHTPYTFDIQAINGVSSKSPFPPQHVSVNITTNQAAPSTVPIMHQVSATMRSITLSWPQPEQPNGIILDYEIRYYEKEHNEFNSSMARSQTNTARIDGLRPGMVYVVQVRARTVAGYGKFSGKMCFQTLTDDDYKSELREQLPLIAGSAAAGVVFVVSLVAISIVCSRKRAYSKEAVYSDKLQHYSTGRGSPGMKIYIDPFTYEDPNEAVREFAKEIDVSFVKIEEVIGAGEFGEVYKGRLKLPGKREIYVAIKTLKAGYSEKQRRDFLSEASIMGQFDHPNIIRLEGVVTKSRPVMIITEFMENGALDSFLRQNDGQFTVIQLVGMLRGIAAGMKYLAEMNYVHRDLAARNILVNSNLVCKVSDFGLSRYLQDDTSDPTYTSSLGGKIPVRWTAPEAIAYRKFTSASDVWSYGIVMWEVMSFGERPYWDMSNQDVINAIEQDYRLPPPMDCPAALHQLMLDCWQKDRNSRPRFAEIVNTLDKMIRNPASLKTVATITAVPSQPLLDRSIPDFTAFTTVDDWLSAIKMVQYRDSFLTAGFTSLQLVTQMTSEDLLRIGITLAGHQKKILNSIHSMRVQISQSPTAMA

SH2 binding enrichment [14] | SH2 binding enrichment [15] | SH2 binding enrichment [16] | Sequence | phosphorylation enrichment [1] | phosphorylation enrichment [2] | phosphorylation enrichment [3] | phosphorylation enrichment [4] | phosphorylation enrichment [5] | phosphorylation enrichment [6] | phosphorylation enrichment [7] | phosphorylation enrichment [8] | phosphorylation enrichment [9] | phosphorylation enrichment [10] | phosphorylation enrichment [11] | phosphorylation enrichment [12] | phosphorylation enrichment [13]
0.855 | 0.895 | 1.07 | KKDGPYDVVVL [PARK7_Y67_E64D] | 0.906 | 0.991 | 0.53 | 0.449 | 0.602 | 3.37 | 0.9 | 0.562 | 0.507 | 0.608 | 0.589 | 0.629 | 0.569
0.821 | 0.694 | 0.532 | KKFPDYIQSAM [SGMS2_Y59_I62S_YF] | 0.621 | 0.348 | 0.424 | 0.479 | 0.471 | 0.332 | 0.65 | 0.401 | 0.482 | 0.512 | 0.364 | 0.472 | 0.521
0.943 | 1.34 | 0.53 | KLFYIYTSGTT [SLC27A4_Y245] | 1.24 | 0.61 | 0.727 | 0.449 | 0.755 | 0.556 | 1.37 | 0.455 | 0.506 | 1.51 | 0.5 | 0.767 | 0.575
2.38 | 0.729 | 1.39 | KLGDVYVNDAF [PGK1_Y161] | 0.734 | 0.467 | 0.571 | 0.557 | 0.63 | 0.547 | 0.86 | 0.552 | 0.488 | 0.801 | 0.395 | 0.574 | 0.423
0.748 | 0.652 | 0.447 | KLIETCFSKNY [PLP1_Y50_Y50C] | 1.07 | 0.576 | 0.555 | 0.473 | 0.739 | 0.47 | 1.38 | 0.456 | 0.621 | 1.13 | 0.474 | 0.973 | 0.524
0.773 | 0.723 | 0.378 | KLKRSYPSPDI [USP8_Y717_S718P] | 0.436 | 0.374 | 0.291 | 0.352 | 0.411 | 0.339 | 0.546 | 0.374 | 0.381 | 0.58 | 0.467 | 0.547 | 0.469
1.15 | 1.04 | 0.851 | KLLLKYSFHDV [RNF213_Y4141] | 1.27 | 0.56 | 0.598 | 0.439 | 0.808 | 0.537 | 1.31 | 0.418 | 0.506 | 1.57 | 0.4 | 0.878 | 0.436

Further lines, the sequence ahead of its results:

Sequence | SH2 binding enrichment [14] | SH2 binding enrichment [15] | SH2 binding enrichment [16] | phosphorylation enrichment [1] | phosphorylation enrichment [2] | phosphorylation enrichment [3] | phosphorylation enrichment [4] | phosphorylation enrichment [5] | phosphorylation enrichment [6] | phosphorylation enrichment [7] | phosphorylation enrichment [8] | phosphorylation enrichment [9] | phosphorylation enrichment [10] | phosphorylation enrichment [11] | phosphorylation enrichment [12] | phosphorylation enrichment [13]
KGPGEYVNIEF [IRS1_Y896_S892G] | 4.8 | 1.22 | 5.64 | 0.958 | 0.708 | 0.639 | 1.43 | 1.14 | 0.475 | 0.79 | 0.58 | 0.498 | 0.691 | 0.442 | 0.493 | 0.484
KHCEDYVFSYN [DSC1_Y846_C848F] | 0.806 | 0.595 | 0.552 | 2.06 | 0.855 | 0.719 | 2.41 | 1.98 | 0.511 | 1.31 | 0.576 | 0.521 | 1.08 | 0.489 | 0.778 | 1.77
KKARAYRPGIE [FLNA_Y287_G288R] | 0.761 | 0.606 | 0.469 | 0.499 | 0.289 | 0.417 | 0.299 | 0.357 | 0.31 | 0.45 | 0.338 | 0.323 | 0.565 | 0.371 | 0.455 | 0.449
KKCTTYIDCDL [ASPA_Y64_R63T] | 0.883 | 0.826 | 0.703 | 0.975 | 0.48 | 0.474 | 0.571 | 0.665 | 0.713 | 1.14 | 0.42 | 0.491 | 0.81 | 0.391 | 0.601 | 0.415
KKGIVYVFNGR [ITGAV_Y404_I405V] | 2.05 | 1.91 | 1.32 | 0.756 | 0.458 | 0.449 | 0.527 | 0.538 | 0.441 | 0.677 | 0.477 | 0.486 | 0.73 | 0.48 | 0.443 | 0.395
KLPYLYDDPFS [GPX2_Y127_P126L] | 0.765 | 0.797 | 2.42 | 1.22 | 3.22 | 4.17 | 0.489 | 0.689 | 1.28 | 1.3 | 0.695 | 1.46 | 0.997 | 2.58 | 1.12 | 0.906
KLQKKYGPIFS [CYP17A1_Y60_YF] | 0.882 | 0.754 | 0.461 | 0.555 | 0.377 | 0.39 | 0.308 | 0.415 | 0.324 | 0.503 | 0.38 | 0.383 | 0.583 | 0.39 | 0.505 | 0.489
KLQKKYGPIYS [CYP17A1_Y60] | 1.01 | 0.819 | 0.588 | 0.433 | 0.361 | 0.351 | 0.318 | 0.438 | 0.39 | 0.468 | 1.59 | 2.26 | 0.378 | 0.422 | 0.451 | 1.17
KLQKYYRKNPD [EHHADH_Y683_Q685K] | 0.905 | 0.604 | 0.597 | 0.399 | 0.353 | 0.415 | 0.311 | 0.332 | 0.283 | 0.501 | 0.359 | 0.341 | 0.486 | 0.369 | 0.394 | 0.275
